Results on 3 molecules are retold here after patent US20240052042A1 (Novartis, published 2024).

Residue numbers refer to the chain shown, from its start. Read-outs that look alike come from different tables or passages of the source.

For assay [1], the target named is T1, human NPR3 in the presence of ANP (human, UniProt P17342 27-481; P01160 124-151, limits assumed).
T1 construct: also called hNPR3 + 100 nM ANP
T1 sequence (looked up): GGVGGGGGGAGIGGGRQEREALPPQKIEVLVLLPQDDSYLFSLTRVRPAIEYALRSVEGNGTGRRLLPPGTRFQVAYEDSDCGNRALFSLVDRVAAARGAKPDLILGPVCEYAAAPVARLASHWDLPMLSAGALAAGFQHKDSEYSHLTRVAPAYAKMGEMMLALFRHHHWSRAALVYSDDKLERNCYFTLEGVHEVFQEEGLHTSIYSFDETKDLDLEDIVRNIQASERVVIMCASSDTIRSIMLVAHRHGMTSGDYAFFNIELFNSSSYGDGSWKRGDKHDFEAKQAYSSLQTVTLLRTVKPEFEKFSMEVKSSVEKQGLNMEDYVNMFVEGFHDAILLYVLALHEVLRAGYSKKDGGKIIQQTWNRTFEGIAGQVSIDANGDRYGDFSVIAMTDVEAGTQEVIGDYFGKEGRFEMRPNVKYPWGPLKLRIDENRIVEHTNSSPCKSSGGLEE
T1 sequence (peptide, looked up): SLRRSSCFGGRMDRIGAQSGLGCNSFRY
Kind of assay: ELISA, IgG titrated on coated antigen with ANP (250 fold molar excess), fluorescence [Cont.]. For orientation: ELISA stands for enzyme-linked immunosorbent assay.

Assay [2] concerns the target T2, human NPR1 on CHO-K1 cells in the presence of ANP (human, UniProt P01160 124-151).
T2 construct: also called hNPR1 CHO K1 + 100 nM ANP
T2 sequence: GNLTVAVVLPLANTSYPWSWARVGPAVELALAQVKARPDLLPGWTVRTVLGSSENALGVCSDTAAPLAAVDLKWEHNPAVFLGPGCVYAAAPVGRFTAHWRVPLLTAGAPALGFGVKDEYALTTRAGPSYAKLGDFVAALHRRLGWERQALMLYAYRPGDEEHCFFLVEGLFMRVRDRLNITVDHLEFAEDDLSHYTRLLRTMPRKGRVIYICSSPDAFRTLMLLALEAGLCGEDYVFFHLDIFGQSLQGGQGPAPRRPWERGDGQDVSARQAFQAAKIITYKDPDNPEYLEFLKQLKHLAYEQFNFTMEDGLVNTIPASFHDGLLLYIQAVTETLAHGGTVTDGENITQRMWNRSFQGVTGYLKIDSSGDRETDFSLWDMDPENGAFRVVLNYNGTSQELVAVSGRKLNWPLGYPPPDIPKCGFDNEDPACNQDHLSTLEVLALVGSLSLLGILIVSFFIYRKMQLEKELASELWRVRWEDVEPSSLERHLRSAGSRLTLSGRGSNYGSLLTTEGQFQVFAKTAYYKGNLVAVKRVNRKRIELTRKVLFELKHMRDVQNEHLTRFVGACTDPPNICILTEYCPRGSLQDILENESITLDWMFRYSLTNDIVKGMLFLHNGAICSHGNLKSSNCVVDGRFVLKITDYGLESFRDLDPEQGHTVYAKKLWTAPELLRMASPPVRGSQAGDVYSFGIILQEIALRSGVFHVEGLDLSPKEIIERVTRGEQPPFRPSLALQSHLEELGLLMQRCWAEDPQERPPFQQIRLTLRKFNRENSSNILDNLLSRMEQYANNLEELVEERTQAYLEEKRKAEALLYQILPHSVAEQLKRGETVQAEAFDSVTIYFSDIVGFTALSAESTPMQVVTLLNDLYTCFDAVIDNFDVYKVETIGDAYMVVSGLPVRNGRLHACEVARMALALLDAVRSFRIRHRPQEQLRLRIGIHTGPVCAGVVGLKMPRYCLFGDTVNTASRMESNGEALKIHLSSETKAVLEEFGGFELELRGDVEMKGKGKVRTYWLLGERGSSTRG
T2 sequence (peptide): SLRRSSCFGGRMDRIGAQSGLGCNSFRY
As to the kind of experiment: flow cytometry (FL2-H) on hNPR1 CHO-K1 cells with saturating ANP, IgG titrated; control parental CHO-K1 [Cont.), panel XX06]. In general terms: In flow cytometry, cells or beads pass a laser one at a time.

The target in assay [3] is T3, human NPR3 (counter target) (human, UniProt P17342 27-481, limits assumed).
T3 construct: Pannings used hNPR3-hFc; also called hNPR3; hNPR3-hFc
T3 sequence (looked up): T1 sequence (looked up)
As to the kind of experiment: ELISA, IgG titrated on coated antigen, fluorescence [Cont.]. As to the method: Furthermore, the clones were tested via ELISA for binding to the following antigens: human NPR1, constitutively active human NPR1 mutant (W74R), rat NPR1, human NPR3 (counter target), each in the absence and presence of ANP, and BSA. The clones were also analyzed by flow cytometry for binding to human NPR1 expressing CHO K1 cells in absence and presence of ANP (100 nM) and to parental CHO K1 cells.

For assay [4], the target named is T4, hNPR1-ANP complex (human, UniProt P01160 124-151, limits assumed).
T4 construct: hNPR1 antigen in the presence of ANP; also called hNPR1 + 100 nM ANP
T4 sequence: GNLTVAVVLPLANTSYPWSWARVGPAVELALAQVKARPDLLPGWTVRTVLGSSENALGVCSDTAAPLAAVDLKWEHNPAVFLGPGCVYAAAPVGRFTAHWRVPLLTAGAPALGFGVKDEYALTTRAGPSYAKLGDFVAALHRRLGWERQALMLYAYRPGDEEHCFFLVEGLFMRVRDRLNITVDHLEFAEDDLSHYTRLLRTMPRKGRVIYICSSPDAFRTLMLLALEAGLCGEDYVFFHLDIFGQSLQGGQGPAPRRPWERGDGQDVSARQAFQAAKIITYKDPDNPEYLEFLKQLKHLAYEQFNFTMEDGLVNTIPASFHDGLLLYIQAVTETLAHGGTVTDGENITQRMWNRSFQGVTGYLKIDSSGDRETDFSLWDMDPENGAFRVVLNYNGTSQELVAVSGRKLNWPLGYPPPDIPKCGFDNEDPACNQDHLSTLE
T4 sequence (peptide): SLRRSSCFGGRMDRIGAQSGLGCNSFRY
Kind of assay: FRET ANP competition assay, IgG titrated on hNPR1 with Cy5-labeled ANP; negative values mean more ANP signal [Cont.), panel XX06]. As to the method: The same 31 IgGs were tested for ANP competition using a Fluorescence Resonance Energy Transfer (FRET)-based assay in which the NPR1-specific antibodies competed with ANP for binding to NPR1. In this FRET based assay (see FIG. 3), Eu-labeled Streptavidin (for measurement of IgGs) or Eu-labeled anti-hFc antibody (for measurement of FabCys) was used as an energy donor, while Cy5-labeled ANP was used as an acceptor (for all measurements). The resulting fluorescent signal was decreased by ANP-competitive antibodies. The assay was performed as follows: antibodies were mixed with NPR1 and incubated for 5 minutes at room temperature. After addition of the Eu-labeled donor and incubation for 30 minutes at room temperature, the Cy5-ANP solution was added. After a further 60-minute incubation, readout was performed using a TECAN Infinite M1000 Pro using an excitation wavelength of 317 nm and an emission wavelength of 665 nm. Percentage of ANP competition was calculated according to the following formulae: […]

Assay [5] deals with T2, human NPR1 on CHO-K1 cells in the …. Kind of assay: flow cytometry (FL2-H) on hNPR1 CHO-K1 cells with saturating ANP, IgG titrated; control parental CHO-K1 [panel XX03].
Assay [6] concerns the target T3, human NPR3 (counter target). As to the kind of experiment: ELISA, IgG titrated on coated antigen, fluorescence [Cont.]. The source holds these as a separate data set.
Assay [7] deals with T1, human NPR3 in the presence of ANP. Kind of assay: ELISA, IgG titrated on coated antigen with ANP (250 fold molar excess), fluorescence [Cont.]. This is another data set of the same source.
Assay [8] has as its target T4, hNPR1-ANP complex. Kind of assay: FabCys, parental value by Octet, assay limit reached (table comment), as in Table 14. (Biolayer interferometry detects binding as a change in optical thickness at a sensor tip.)
Assay [9] addresses T5, rNPR1-ANP complex (rat, UniProt P01160 124-151 (human entry), limits assumed).
T5 construct: rNPR1 antigen in the presence of ANP; also called rNPR1 + 100 nM ANP
T5 sequence: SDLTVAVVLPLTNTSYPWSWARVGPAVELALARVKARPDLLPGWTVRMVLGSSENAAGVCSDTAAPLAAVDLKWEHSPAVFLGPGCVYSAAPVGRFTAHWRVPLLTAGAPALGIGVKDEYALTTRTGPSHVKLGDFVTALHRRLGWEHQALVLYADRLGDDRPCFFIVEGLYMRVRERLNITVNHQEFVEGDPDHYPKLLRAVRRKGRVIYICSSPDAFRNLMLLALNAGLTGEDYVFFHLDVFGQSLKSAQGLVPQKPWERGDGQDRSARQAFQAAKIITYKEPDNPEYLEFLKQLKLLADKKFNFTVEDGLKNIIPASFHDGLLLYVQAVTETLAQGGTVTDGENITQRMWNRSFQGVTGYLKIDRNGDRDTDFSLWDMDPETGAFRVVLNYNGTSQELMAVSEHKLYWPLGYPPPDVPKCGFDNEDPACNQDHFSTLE
T5 sequence (peptide): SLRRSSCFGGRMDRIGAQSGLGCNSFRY
The description is as above.

The target of assay [10] is T6, human Natriuretic Peptide Receptor 1 (hNPR1) (human, UniProt P16066 33-473, limits assumed).
T6 construct: pannings used NPR1-hFc; also called NPR1-hFc
T6 sequence: T4 sequence
The description is as above.

Assay [11] deals with T7, rat NPR1 (rNPR1) (rat, UniProt P18910 29-469, limits assumed).
T7 construct: Soluble antigen
T7 sequence: T5 sequence
The assay is described as above.

Assay [12] addresses T8, human NPR1 on CHO-K1 cells (human, UniProt P16066 33-1061).
T8 sequence: T2 sequence
Kind of assay: cell-based or functional assay.

In assay [13] the target is T4, hNPR1-ANP complex. Kind of assay: FabCys affinity (Octet per Table 18 comment).
In assay [14] the target is T5, rNPR1-ANP complex. As to the kind of experiment: FabCys affinity (Octet per Table 18 comment).
In assay [15] the target is T6, human Natriuretic Peptide Receptor 1 …. Kind of assay: FabCys affinity (Octet per Table 18 comment).
The target in assay [16] is T7, rat NPR1 (rNPR1). As to the kind of experiment: FabCys affinity (Octet per Table 18 comment).

B1: XX06 (IgG format) (antibody, V domains shown)
VH: QVQLLESGGGLVQPGGSLRLSCAASGFTFSSYWMNWVRQAPGKGLEWVSAISSDGSYTYYADSVKGRFTISRDNSKNTLYLQMNSLRAEDTAVYYCARDRYSMIYSYGAGAFDYWGQGTLVTVSS
VL: DIQMTQSPSSLSASVGDRVTITCRASQGISSYLAWYQQKPGKAPKLLIYTASTLQSGVPSRFSGSGSGTDFTLTISSLQPEDFATYYCQQTWRKPRTFGQGTKVEIK
As usually defined, the EC50 (read off the curve) is the concentration needed to bring the measured effect to its halfway point. B1: the binding result in assay [1] and in [3] was “no binding (tested: 200 nM)” throughout. Moreover, the figures for the concentration for a half-maximal effect (EC50 (read off the curve)) (in [2]; in the assay with hNPR1-ANP complex [4]) were about 2 nM and about 0.2 nM, respectively.

B2: XX03 (IgG format) (antibody, V domains shown)
VH: B1 VH with Q1E, A50V, S52E, D54K, S56N, T58I, Y59F
VL: B1 VL with Q89M, T91S, W92Y, R93E
As for B2, the “EC50 (read off the curve)” value in assay [5] was about 1 nM. Also, the binding result in assay [6] and in assay [7] was “no binding (tested: 200 nM)” throughout.

B3: YY05 (FabCys format) (Fab, V domains shown)
VH: EVQLVQSGAEVKKPGESLKISCKGSGYSFTSYWISWVRQMPGKGLEWMGIIYPGTSYTRYSPSFQGQVTISADKSISTAYLQWSSLKASDTAMYYCARGAVAGQLGFDHWGQGTLVTVSS
VL: QSVLTQPPSVSGAPGQRVTISCTGSSSNIGAGYDVHWYQQLPGTAPKLLIYGNSNRPSGVPDRFSGSKSGTSASLAITGLQAEDEADYYCQSYYTSSHGPVFGGGTKLTVL
notes: Monovalent FabCys
What is called Kd is the free concentration of one partner at which half of the binding sites on the other are occupied at equilibrium, for simple one-to-one binding. Take B3: the Kd came out at 350 nM with hNPR1-ANP complex [8]; 16000 nM in the assay with rNPR1-ANP complex [9]; 0.9 nM in assay [10]; 700 nM in the assay with rat NPR1 (rNPR1) [11]; 350 nM with hNPR1-ANP complex [13]; 16000 nM with rNPR1-ANP complex [14]. In addition, the Kd in assay [15] turned out to be 0.9 nM; in the assay with rat NPR1 (rNPR1) [16], 700 nM. The “cGMP conc [nM] at 1 µM FabCys, +0.075 nM ANP” value in assay [12] turned out to be 227 nM. In addition, the “cGMP conc [nM] at 1 µM FabCys, without ANP” value in assay [12] is 207 nM.
